# Reference: patent US20090074795A1, “Methods for addressing ocular diseases through interference with the wnt signaling pathway” (priority 2007, published 2009)
# Tests used:
# [1] = tested on: Vldlr^−/− mice; test: Subretinal injection of purified mouse DKK1 in Vldlr−/− mice (β-catenin phosphorylation, VEGF in eyecup); assay type: in vivo
# Method: To confirm the association of the wnt pathway activation with VEGF over-expression in Vldlr^−/− mice, 5 μg purified mouse DKK1, a specific inhibitor of the wnt signal pathway by binding with LRP5/6, were injected into the subretinal space of the Vldlr^−/− mice into one eye and the same amount of a control protein (BSA) into the contralateral eye. Twenty-four hours after the injection, β-catenin phosphorylation and VEGF levels in the eyecup were measured by western blot analysis.
# Vldlr^−/− mice received a subretinal injection of 5 μg purified mouse DKK1 into the right eyes, and the same amount BSA into the left eyes. According to embodiments shown in FIG. 9A, The eyecups were dissected 24 h following the injection for the following analyses, phosphorylated β-catenin and VEGF levels were measured by Western blot analysis of a representative mouse eyecup using the anti-phosphorylated β-catenin and anti-VEGF antibodies, respectively. According to embodiments shown in FIG. 9B, VEGF protein levels in Vldlr^−/− eyecups were measured using ELISA. According to embodiments shown in FIG. 9C, VEGF mRNA levels in the Vldlr^−/− eyecups were measured using quantitative real-time RT-PCR. Values are mean±SD (n=4). According to embodiments shown in FIGS. 9D-9G, Vldlr^−/− mice were injected with 5 μg/eye BSA into the subretinal space of the left eye (FIGS. 9D and 9F) and the same amount of DKK1 into the right eye (FIGS. 9E and 9G). The ocular sections were immunostained with an anti-VEGF antibody (FIGS. 9D and 9E) and an anti-β-catenin antibody (FIGS. 9F and 9G). 400×. PRL, photoreceptor layer. According to embodiments shown in FIGS. 9H and 9I, HUVEC were transfected with the VLDLR siRNA. The transfected cells were treated with 10 μg/ml human DKK1or BSA. VEGF protein was measured in the culture medium by ELISA (FIG. 9H) and the VEGF mRNA measured in the cells by real-time RT-PCR, normalized by 18s RNA and expressed as arbitrary unit (mean±SD, n=3) (FIG. 9I), 24 hours after the addition of DKK1.
# VEGF ELISA: The human VEGF QuantiGlo ELISA kit (R&D Systems, Inc., Minneapolis, Minn.) was used to measure VEGF levels in HUVEC and ARPE19 cells, and the mouse VEGF Quantikine ELISA kit (R&D Systems, Inc.) was used for mouse tissues following the manufacturer's protocol. The samples of the culture medium were concentrated 10 times, and the samples from mouse tissues were diluted 10 times to ensure that the VEGF concentration fell within the range of the VEGF standard curves.
# Western Blot Analysis: The same amount (100 μg) of total proteins from mouse eyecups were used for Western blot analysis using specific primary antibodies for each protein and blotted with an horseradish peroxidase-conjugated secondary antibody. The signal was developed with a chemiluminescence detection kit (ECL; Amersham Biosciences). Blots were then stripped and re-blotted with an antibody specific for β-actin. Each protein band was semiquantified by densitometry and normalized by β-actin levels in the same gel.
# Quantitative Real-time Reverse Transcription (RT)-PCR: Mice eyes were enucleated immediately after death into chilled diethylpyrocarbonate-treated normal saline, and the retinas were dissected. Total RNA was isolated using a commercial kit (Qiagen, Santa Clarita, Calif.). […] Fluorescence changes were monitored after each cycle. […] The average CT (threshold cycle) of fluorescence unit was used to analyze the mRNA levels. […]
# [2] = tested on: OIR rats; test: Pre-retinal NV and HIF-1α in retinal sections of OIR rats; assay type: in vivo, rat
# Method: Because pre-retinal NV (vasculature growing into the vitreous space) is a characteristic change of diabetic retinopathy, the effect of DKK1 was evaluated on pre-retinal NV. DKK1 was injected into the right vitreous of the OIR rats and BSA into the left vitreous at P15. At P18, pre-retinal NV was examined in retinal sections. […] Furthermore, the nuclear translocation and expression levels of HIF-1α, a key transcription factor activating VEGF expression, were decreased in the retina of the DKK1-injected eye, compared to the eye treated with BSA.
# According to embodiments of experimental data and as shown in FIGS. 20A-20C, Brown Norway (BN) rats were exposed to hyperoxia for 5 days (P7-P12). At age of P15, the rats received a single injection of 3 μg of DKK1 into the vitreous of the right eyes and BSA into the left eyes. The eyes were sectioned at P18. Representative retinal sections from normal control rats (FIG. 20A), eyes of OIR rats injected with BSA (FIG. 20B), and OIR retina injected with DKK1 (FIG. 20C) were triple stained with three antibodies: Retinal vascular EC was stained with an antibody against CD31 (Red); the retinal ischemia stress status was detected by an antibody against GFAP (Blue), and the levels and nuclear translocation of HIF-1α were determined by an antibody against HIF-1α (Green).
# [3] = 5 μg/eye subretinal, immunohistochemistry, vs BSA contralateral eye
molecule,measurement,setting,value
"DKK1: Purified Dickkopf-1 protein (R&D System), specific inhibitor of the wnt pathway binding LRP5/6; mouse protein in mice, human in HUVEC (protein, UniProt O54908 32-272; O54908 32-272, looked up, mouse protein in mice, human in HUVEC) Dickkopf-related protein 1 1: TLNSVLINSNAIKNLPPPLGGAGGQPGSAVSVAPGVLYEGGNKYQTLDNYQPYPCAEDEECGSDEYCSSPSRGAAGVGGVQICLACRKRRKRCMRHAMCCPGNYCKNGICMPSDHSHFPRGEIEESIIENLGNDHNAAAGDGYPRRTTLTSKIYHTKGQEGSVCLRSSDCAAGLCCARHFWSKICKPVLKEGQVCTKHKRKGSHGLEIFQRCYCGEGLACRIQKDHHQASNSSRLHTCQRH Dickkopf-related protein 1 2: TLNSVLINSNAIKNLPPPLGGAGGQPGSAVSVAPGVLYEGGNKYQTLDNYQPYPCAEDEECGSDEYCSSPSRGAAGVGGVQICLACRKRRKRCMRHAMCCPGNYCKNGICMPSDHSHFPRGEIEESIIENLGNDHNAAAGDGYPRRTTLTSKIYHTKGQEGSVCLRSSDCAAGLCCARHFWSKICKPVLKEGQVCTKHKRKGSHGLEIFQRCYCGEGLACRIQKDHHQASNSSRLHTCQRH",VEGF mRNA levels in Vldlr−/− eyecups,"[1]; 5 μg subretinal, 24 h, real-time RT-PCR, vs BSA",significantly decreased
same,phosphorylation of β-catenin in eyecup,"[1]; 5 μg subretinal, 24 h, western blot, vs BSA contralateral eye",increased phosphorylation of β-catenin
same,VEGF protein levels in Vldlr−/− eyecups,"[1]; 5 μg subretinal, 24 h, western blot/ELISA, vs BSA",significantly decreased
same,levels of VEGF in the RPE,[1]; [3],significantly decreased
same,levels of β-catenin in the RPE,[1]; [3],significantly decreased
same,nuclear translocation and expression levels of HIF-1α in the retina,"[2]; 3 μg intravitreal at P15, sections at P18, vs BSA",decreased
same,neovascular endothelial cells (EC) in the vitreous space (pre-retinal NV),"[2]; 3 μg intravitreal at P15, sections at P18, vs BSA contralateral eye",significantly fewer
